Results: article PMC7181697 (2020)

B1: REV3(1847-1906) (domain or fragment)
chain: MLTPTPDSSPRSTSSPSQSKNGSFTPRTANILKPLMSPPSREEIMATLLDHDLSETIYQE
B2: cREV1 CTD (chimeric REV1 CTD: POL κ RIR fused to the N-terminus of REV1 CTD) (other)
chain: SHKKSFFDKKRSERKWGLSSLQSDPAGCVRPPAPNLAGAVEFNDVKTLLREWITTISDPMEEDILQVVKYCTDLIEEKDLEKLDLVIKYMKRLMQQSVESVWNMAFDFILDNVQVVLQQTYGSTLKVT
B3: SHLD3(1–82) with C-terminal His6-tag (domain or fragment)
chain: MTTEVILHYRPCESDPTQLPKIAEKAIQDFPTRPLSRFIPWFPYDGSKLPLRPKRSPPVISEEAAEDVKQYLTISEHDAKSH

How the values were obtained:
Experiment in all cases: ITC
REV7^K129A = REV7^K129A (human, UniProt Q9UI95 1-211, K129A)
Sequence of REV7^K129A (Q9UI95 whole entry K129A): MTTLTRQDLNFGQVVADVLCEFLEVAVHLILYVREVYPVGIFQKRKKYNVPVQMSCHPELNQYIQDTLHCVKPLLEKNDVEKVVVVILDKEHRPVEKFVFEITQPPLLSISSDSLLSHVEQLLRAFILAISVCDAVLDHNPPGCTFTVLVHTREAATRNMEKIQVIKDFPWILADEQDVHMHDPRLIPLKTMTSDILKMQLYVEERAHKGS

REV7^WT-REV3(1871–2021) = REV7^WT-REV3(1871–2021) (human, UniProt Q9UI95 1-211; O60673 1871-2021)
Sequence of REV7^WT-REV3(1871–2021) (Q9UI95 whole entry, chain 1 of 2): as the sequence (Q9UI95 whole entry K129A) above, with A129K counted along it
Sequence of REV7^WT-REV3(1871–2021) (O60673 1871-2021, chain 2 of 2): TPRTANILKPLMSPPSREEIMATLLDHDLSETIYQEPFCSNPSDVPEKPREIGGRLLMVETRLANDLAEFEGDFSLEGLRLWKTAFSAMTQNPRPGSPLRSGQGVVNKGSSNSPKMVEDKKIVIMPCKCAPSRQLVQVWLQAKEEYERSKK

REV7^Y63A = REV7^Y63A (human, UniProt Q9UI95 1-211, Y63A)
Sequence of REV7^Y63A (Q9UI95 whole entry Y63A): as the sequence (Q9UI95 whole entry K129A) above, with Y63A, A129K counted along it

REV7^W171A = REV7^W171A (human, UniProt Q9UI95 1-211, W171A)
Sequence of REV7^W171A (Q9UI95 whole entry W171A): as the sequence (Q9UI95 whole entry K129A) above, with A129K, W171A counted along it

| Binder | Kd (REV7^K129A) [nM] | Kd (REV7^WT-REV3(1871–2021)) [nM] | Kd (REV7^Y63A) [nM] | Kd (REV7^W171A) [nM] |
| --- | --- | --- | --- | --- |
| B1 | 7.3 | – | – | – |
| B2 | – | 1600 | – | – |
| B3 | 4.8 | – | 160 | 170 |
